Measurements from patent US20140322218A1 (Amgen, published 2014).

T1: rhCDH19(1-43)::FLAG::rhCDH19(44-141)::raCDH19(140-247)::rhCDH19(250-772), on 293T cells (rhesus macaque/rat chimera, UniProt Q9H159 44-772 (human entry))
T1 construct: Entry holds leader (1-43), Flag tag and CDH19 part; leader left out; also called ra EC2 (rhesus backbone)
T1 chain: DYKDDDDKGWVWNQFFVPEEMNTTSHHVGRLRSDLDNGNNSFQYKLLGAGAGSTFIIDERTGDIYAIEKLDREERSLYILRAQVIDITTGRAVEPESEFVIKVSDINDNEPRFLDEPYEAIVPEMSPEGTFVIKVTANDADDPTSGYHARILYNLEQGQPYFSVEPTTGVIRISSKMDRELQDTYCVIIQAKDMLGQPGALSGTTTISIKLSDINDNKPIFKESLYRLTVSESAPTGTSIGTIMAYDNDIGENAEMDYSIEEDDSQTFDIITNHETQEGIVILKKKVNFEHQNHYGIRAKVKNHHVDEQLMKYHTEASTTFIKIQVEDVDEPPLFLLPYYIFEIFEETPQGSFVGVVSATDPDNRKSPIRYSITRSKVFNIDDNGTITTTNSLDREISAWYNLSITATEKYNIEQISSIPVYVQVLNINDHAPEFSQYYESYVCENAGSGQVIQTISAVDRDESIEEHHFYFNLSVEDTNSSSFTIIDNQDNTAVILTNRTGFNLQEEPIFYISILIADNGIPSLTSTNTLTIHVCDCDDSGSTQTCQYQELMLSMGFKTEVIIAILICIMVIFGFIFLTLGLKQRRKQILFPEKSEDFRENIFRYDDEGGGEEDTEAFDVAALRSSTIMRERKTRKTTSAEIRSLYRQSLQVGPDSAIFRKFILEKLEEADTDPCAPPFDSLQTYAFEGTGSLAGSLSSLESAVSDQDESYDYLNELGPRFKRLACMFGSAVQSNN

T2: Cyno Cadherin-19 (cynomolgus monkey (Macaca fascicularis), UniProt Q9H159 44-772 (human entry))
T2 construct: also called cyno CDH19; cynomologous CDH-19
T2 chain: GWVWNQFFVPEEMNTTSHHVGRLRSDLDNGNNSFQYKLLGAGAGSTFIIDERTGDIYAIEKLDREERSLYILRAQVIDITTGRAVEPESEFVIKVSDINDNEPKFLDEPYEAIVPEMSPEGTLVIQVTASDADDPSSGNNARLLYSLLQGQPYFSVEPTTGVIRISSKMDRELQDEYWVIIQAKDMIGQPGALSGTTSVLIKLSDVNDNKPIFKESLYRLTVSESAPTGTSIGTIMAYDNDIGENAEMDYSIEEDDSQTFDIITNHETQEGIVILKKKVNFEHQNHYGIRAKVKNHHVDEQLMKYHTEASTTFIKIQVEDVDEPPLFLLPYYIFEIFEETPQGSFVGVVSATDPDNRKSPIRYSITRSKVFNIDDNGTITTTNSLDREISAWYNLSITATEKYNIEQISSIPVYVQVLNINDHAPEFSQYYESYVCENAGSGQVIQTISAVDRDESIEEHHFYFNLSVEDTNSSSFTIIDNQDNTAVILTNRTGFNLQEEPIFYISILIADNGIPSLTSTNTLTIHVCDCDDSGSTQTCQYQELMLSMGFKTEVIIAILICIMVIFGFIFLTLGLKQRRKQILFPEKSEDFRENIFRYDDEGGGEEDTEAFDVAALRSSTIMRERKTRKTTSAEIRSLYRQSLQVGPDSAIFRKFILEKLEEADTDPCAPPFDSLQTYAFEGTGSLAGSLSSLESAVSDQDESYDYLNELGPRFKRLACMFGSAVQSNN

T3: (1-43)::FLAG::muCDH19(44-323)::raCDH19(324-327)::muCDH19(328-770), on 293T cells (mouse/rat chimera)
T3 construct: Entry holds leader (1-43), Flag tag and CDH19 part; leader left out; also called Ra EC3c
T3 chain: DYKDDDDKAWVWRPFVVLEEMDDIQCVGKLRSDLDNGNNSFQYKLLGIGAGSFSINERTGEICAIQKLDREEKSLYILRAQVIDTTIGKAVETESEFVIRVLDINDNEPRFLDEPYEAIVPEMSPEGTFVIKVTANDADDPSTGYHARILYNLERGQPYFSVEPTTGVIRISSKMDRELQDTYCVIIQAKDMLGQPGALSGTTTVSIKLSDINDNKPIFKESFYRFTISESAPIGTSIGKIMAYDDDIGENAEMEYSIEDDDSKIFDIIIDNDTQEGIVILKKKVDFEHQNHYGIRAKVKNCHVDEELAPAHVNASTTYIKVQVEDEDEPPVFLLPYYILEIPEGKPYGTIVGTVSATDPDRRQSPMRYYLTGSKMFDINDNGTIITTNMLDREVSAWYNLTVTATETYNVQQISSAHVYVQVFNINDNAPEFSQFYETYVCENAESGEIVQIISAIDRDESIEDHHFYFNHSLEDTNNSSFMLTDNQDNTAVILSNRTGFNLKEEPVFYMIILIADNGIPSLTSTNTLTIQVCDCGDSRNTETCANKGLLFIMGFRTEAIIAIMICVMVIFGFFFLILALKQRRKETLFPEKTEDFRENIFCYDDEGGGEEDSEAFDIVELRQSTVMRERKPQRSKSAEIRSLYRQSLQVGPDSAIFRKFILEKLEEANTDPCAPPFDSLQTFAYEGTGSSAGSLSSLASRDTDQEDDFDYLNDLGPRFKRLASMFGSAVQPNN


Experiments:
[1] = target: T4, huCDH19(44-141)::muCDH19(140-770), Flag-tagged, on 293T cells (human/mouse chimera); assay: FACS, transfected 293T
T4 construct: also called Hu EC1
Excerpt: (§1) The experiment included assaying the anti-CDH19 antibodies against mouse Cadherin19 to determine suitability for binning on these human/mouse chimeras.

[2] = target: T5, huCDH19(44-249)::muCDH19(248-770), Flag-tagged, on 293T cells (human/mouse chimera); assay: FACS, transfected 293T
T5 construct: also called Hu EC1-2; C137896
Excerpt: as §1

[3] = target: T1, rhCDH19(1-43)::FLAG::rhCDH19(44-141)::ra …; assay: FACS, transfected 293T
Description: The following binding assay was completed in presence of 2 mM CaCl2. […] Cells were then washed one time and the amount of cell associated Alexa647-labelled Ab was quantitated by flow cytometry. The experiments included mock transfected controls.

Cyno Cadherin-19 = target: T2, Cyno Cadherin-19; assay: FACS, recombinant cyno CDH19
Human Cadherin-19 = target: T6, Human Cadherin-19 (human, UniProt Q9H159 44-772); assay: FACS, endogenous CDH19 on CHL-1/Colo699
T6 construct: Residues 1-43 are named as the native leader in the construct designations and are left out; also called human CDH19; huCDH19
Description: FACS binding assays were performed to evaluate the binding of the anti-Cadherin-19 receptor specific antibodies to endogenous Cadherin-19 receptor expressed on the CHL-1 tumor cell lines.
FACs assays were performed by incubating hybridoma supernatants with 10,000 to 25,000 cells in PBS/2% Fetal bovine serum/2 mM Calcium Chloride at 4° C. for one hour followed by two washes with PBS/2% Fetal bovine serum/2 mM Calcium Chloride. Cells were then treated with florochrome-labeled secondary antibodies at 4° C. followed by one wash. The cells were resuspended in 50 μl of PBS/2% FBS and antibody binding was analyzed using a FACSCalibur™ instrument.

[4] = target: T3, (1-43)::FLAG::muCDH19(44-323)::raCDH19(3 …); assay: FACS, transfected 293T

| Binder | binding result [1] | binding result [2] | binding result [3] | binding result (Cyno Cadherin-19) | binding result (Human Cadherin-19) | binding result [4] |
| --- | --- | --- | --- | --- | --- | --- |
| hu anti-<huCDH19> 4A9 VH::huIgG1z / 4A9 VL::huLLC-C1 (Ab ID 13589) (antibody, V domains shown, Recombinant fully human IgG1) VH: QVQLQESGPGLVKPSETLSLTCTVSGGSISGYYWSWIRQPPGKGLEWFAYFSYSGSTNYNPSLKSRVTLSVDTSKNQFSLKLSSVTAADTAVYYCARNWAFHFDFWGQGTLVTVSS VL: QSVLTQPPSVSGAPGQRVTISCTGSSSNIGTGYAVHWYQQFPGTAPKLLIYGNNNRPSGVPDRFSGSKSGTSASLAITGLQAEDEADYYCQSYDSRLSGWVFGGGTKLTVLG | binds | binds | no binding (tested: 5 ug/ml) | binds | binds | – |
| hu anti-<huCDH19> 25F8.1 (1-469)(F90Y) VH::huIgG1z / 25F8.1 (1-235)(K45Q,S102A,D111E) VL::huLLC-C2 (Ab ID 14096) (antibody, V domains shown, Engineered variant of 25F8) VH: QVQLVQSGAEVKKPGASVKVSCKASGYTFTSYYIHWVRQAPGQGLEWMGIINPSGGSTRYAQKFQGRVTMTRDTSTSTVYMELSSLRSEDTAVYYCARGGIQLWLHFDYWGQGTLVTVSS VL: not shown | – | – | no binding (tested: 5 ug/ml) | – | – | – |
| hu anti-<huCDH19> 4B10 VH::huIgG1z / 4B10 VL::huKLC (Ab ID 13590) (antibody, V domains shown) VH: QVQLVESGGGVVQPGRSLRLSCAASGFTFSSYDMHWVRQAPGKGLEWVAVISYDGTNEYYADSVKGRFTISRDTSKNTLYLQMNSLRAEDTAVYYCARERYFDWSFDYWGQGTLVSVSS VL: EIVLTQSPGTLSLSPGERATLSCRASQSVSNTYLAWYHQRPGQAPRLLIYGASSRATGIPDRFSGSGSGTDFALTISSLEPEDFAVYYCQQYSNSWTFGQGTKVEIKR | – | – | – | binds | – | binds |

The next lines start with the values.

| binding result [1] | binding result [2] | binding result [3] | binding result (Cyno Cadherin-19) | binding result (Human Cadherin-19) | binding result [4] | Binder |
| --- | --- | --- | --- | --- | --- | --- |
| binds | binds | no binding (tested: 5 ug/ml) | binds | binds | – | hu anti-<huCDH19> 26D1.1 VH::huIgG1z / 26D1.1 VL::huLLC-C2 (Ab ID 13882) (antibody, V domains shown) VH: QVQLVQSGAEVKKPGASVKVSCKASRYTFTSYYMSWVRQAPGQGLEWMGIIHPSGGDTTYAQKFQGRVTMTGDTSTSTVYMELSSLRSEDTAVYYCARGGIKLWLHFDYWGQGTLVTVSS VL: not shown |
| binds | binds | – | binds | – | binds | anti-CDH19 antibody 2G6 (Ab ID 13588) (antibody, human IgG1, lambda, V domains shown) VH: QVQLVESGGGVVQPGRSLRLSCAASGFTFSSYGMHWVRQAPGKGLEWVAFIWYDGSNKYYADSVKDRFTISRDNSKNTLYLQMKSLRAEDTAVYYCARRAGIIGTIGYYYGMDVWGQGTTVTVSS VL: SYELTQPPSVSVSPGQTASITCSGDRLGEKYTCWYQQRPGQSPLLVIYQDTKRPSGIPERFSGSNSGNTATLTISGTQAMDEADYYCQAWDSSTVVFGGGTKLTVLG |
| – | – | – | binds | – | – | anti-CDH19 antibody 4A2 (Ab ID 13592) (antibody, human IgG1, kappa, V domains shown) VH: QVQLQESGPGLVKPSQTLSLTCTVSGGSISSSGYYWSWIRQHPGKGLEWIGYIYYTGSAYYNPSLKSRVTISVDTSKNQFSLKLSSVTAADTAVYYCARDGSSGWYFQYWGQGTLVTVSS VL: EIVLTQSPGTLSLSPGERATLSCRASRNISSSYLAWYQQKPGQAPRLLIYGPSSRATGIPDRFSGSGSGTDFTLTISRLEPEDFTVYYCQQYGSSFTFGPGTKVDIKR |
